From US10654915B2, “Antibodies useful in passive influenza immunization” (priority 2011, dated 2020)
“And” between values parts separate entries of the source, which are not always exact repeats. Identical values can stand only once. Like-named read-outs stand apart in the source and are kept apart here.

Experiments:
[1] = biological target: H5N1 A/VN/1204 (H5 Vietnam/1203/2004) HA; type: binding, influenza A
[2] = biological target: H1N1 A/CA/07/09 (H1 Calif/07/09) HA; type: binding, influenza A
H7N3 = type: cell-based, influenza A
H9N2 = type: cell-based, influenza A
H1 HA = type: binding, influenza A; conditions: read-out: affinity
H5N1 [3] = tested on: H5N1; design: species or system mice; conditions: mouse, in vivo
Philippines 2/82 = tested on: Philippines 2/82; design: species or system mice; conditions: mouse, in vivo
[4] = tested on: H5N1: A/Vietnam/1203/04/HPAI; design: species or system mice; conditions: mouse, in vivo, ip, 10 mg/kg
[5] = tested on: virus 10 times the LD50 delivered intranasally; assay: Prophylaxis in mice, potency (EC50); type: in vivo; conditions: single intraperitoneal dose at Day -1, virus at Day 0
H1N1: A/CA/04/09 = tested on: H1N1: A/CA/04/09; design: species or system mice; conditions: mouse, in vivo, ip, 10 mg/kg
H7 HA = type: binding, influenza A; conditions: read-out: affinity
A/Ca/04/09 (H1N1) = assay: In vivo efficacy, treatment at Day 2; design: species or system mice; conditions: IP at Day 2, 10 mg/kg (mixture 10 mg/kg each), FIGS. 6A, 6C
[6] = tested on: H1N1 Influenza A/Ca/04/09; assay: Comparison to treatment with Tamiflu in infected mice; type: in vivo
H9N2 Mallard/MN/98 = type: cell-based, influenza A
H5N1 A/VN/1204 = type: cell-based, influenza A
H5N1 [7] = type: cell-based, influenza A
H9 HA = type: binding, influenza A; conditions: read-out: affinity
H5 HA = type: binding, influenza A; conditions: read-out: affinity
H1N1 [8] = tested on: H1N1; design: species or system mice; conditions: mouse, in vivo
H2N2 A/Mallard/MN/2008 = type: cell-based, influenza A
H1N1 [9] = type: cell-based, influenza A
HA1 = assay: Binding to HA1; design: species or system influenza A
[10] = biological target: HA of clades spanning Group 1; assay: Standard FortéBio assay (FIG. 3A); type: binding, influenza A; conditions: Group 1, FIG. 3A
H1N1 A/CA/07/09 = assay: MDCK monolayer microneutralization assay; type: cell-based, influenza A

B1: MAB53 (antibody, V domains shown)
VH: QVQLVQSGAEVRKPGSSVKVSCKVSGGIIRKYAINWVRQAPGQGLEWMGGIIAIFNTANYAQKFQGRVTITADESTSTVYMELSSLRSEDTALYYCARGMNYYSDYFDYWGQGSLVTVSP
VL: EIVLTQSPGTLSLSPGERATLSCRASQSVRSNNLAWYQHKPGQAPRLLIFGASSRATGIPDRFSGSGSGTDFTLTISRLEPEDFAVYYCQQYGSSPALTFGGGTKVEIK
modifications: CHAIN (1)...(120) MAB53 heavy chain sequence of variable domain; DOMAIN (31)...(35) CDR1; DOMAIN (50)...(66) CDR2; DOMAIN (99)...(110) CDR3; CHAIN (1)...(109) MAB53 light chain sequence; DOMAIN (24)...(35) CDR1; DOMAIN (51)...(57) CDR2; DOMAIN (90)...(98) CDR3
Kd ([1]; read-out: Affinity by FortéBio): 0.5 nM
Kd ([1]; read-out: KD): 0.5 nM
Kd [2]: 0.1 nM
low doses that neutralized infection (H7N3): 1 to 5 µg/mL
low doses that neutralized infection (H9N2): 1 to 5 µg/mL
Kd (H1 HA): 0.06 nM
survival (H5N1 [3]): 80% and 60% and 50%
protection / survival (Philippines 2/82): resulted in death after 10 days
therapeutic effectiveness (survival) [4]: fully effective
EC50 (prophylaxis potency) [5]: 0.4 mg/kg
therapeutic effectiveness (survival) (H1N1: A/CA/04/09): fully effective
Kd (H7 HA): 0.07 nM
protection / survival (A/Ca/04/09 (H1N1)): protective
survival ([6]; 10 mice per group, treatment from Day +1, to Day 14): eight of the ten mice survived past Day 8 to Day 14
weight relative to original weight (in words) ([6]; by Day 14): the original weight was exceeded
day at which decline in weight was reversed ([6]; treatment from Day +1): 4 days
EC50 (H9N2 Mallard/MN/98): 0.10 µg/mL
EC50 (H5N1 A/VN/1204): 0.10 µg/mL
Potency Difference (H5N1 A/VN/1204): 40x
low doses that neutralized infection (H5N1 [7]): 1 to 5 µg/mL
Kd (H9 HA): 0.03 nM
Kd (H5 HA): 6 nM
survival (H1N1 [8]): 90% and 50%
EC50 (H2N2 A/Mallard/MN/2008): 1.20 µg/mL
low doses that neutralized infection (H1N1 [9]): 1 to 5 µg/mL
binding to HA1 (HA1): does not bind HA1
affinity across clades (in words) [10]: sub-nM affinity
Potency Difference (H1N1 A/CA/07/09; MAB53 vs CR6261 EC50, H1N1 A/CA/07/09): 30x
EC50 (H1N1 A/CA/07/09; in vitro neutralization, H1N1 A/CA/07/09): 0.14 µg/mL
